Results on one molecule are retold here after article PMC10330843 (Cell, 2023).

The experiment has as its target recombinant full-length mouse cGAS (mouse, UniProt Q8C6L5 1-507). As to the kind of experiment: co-IP.

Sequence of recombinant full-length mouse cGAS (Q8C6L5 whole entry): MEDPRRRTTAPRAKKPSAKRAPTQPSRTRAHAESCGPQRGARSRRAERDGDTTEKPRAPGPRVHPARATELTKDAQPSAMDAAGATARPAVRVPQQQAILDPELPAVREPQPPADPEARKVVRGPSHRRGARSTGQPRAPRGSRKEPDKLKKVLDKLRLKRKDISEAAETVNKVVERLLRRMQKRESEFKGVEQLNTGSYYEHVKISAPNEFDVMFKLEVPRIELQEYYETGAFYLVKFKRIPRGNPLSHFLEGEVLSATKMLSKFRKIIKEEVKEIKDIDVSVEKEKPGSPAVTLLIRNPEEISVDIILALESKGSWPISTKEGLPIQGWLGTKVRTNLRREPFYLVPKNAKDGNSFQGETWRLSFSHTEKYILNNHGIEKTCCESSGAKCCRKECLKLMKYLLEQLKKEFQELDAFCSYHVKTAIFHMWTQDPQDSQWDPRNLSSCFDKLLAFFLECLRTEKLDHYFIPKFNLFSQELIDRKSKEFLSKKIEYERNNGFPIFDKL

B1: recombinant full-length mouse ZBP1 (natural protein, UniProt Q9QY24 1-411, looked up)
chain: MAEAPVDLSTGDNLEQKILQVLSDDGGPVKIGQLVKKCQVPKKTLNQVLYRLKKEDRVSSPEPATWSIGGAASGDGAPAIPENSSAQPSLDERILRFLEANGPHRALHIAKALGMTTAKEVNPLLYSMRNKHLLSYDGQTWKIYHSRQEGQDIAHSGVTQESPAIICQHNPVNMICQQGANSHISIANSNAIQIGHGNVIVREKACGEPGPRTSHPLPLAWDASAQDMPPVAHGAQYIYMDKSLLQQVQLGHHNEMSLVGDAGKHPSYSFSDSPPEVSTTTADPGASFNMQTFEPGPHPEGDTVQTVHIKSCFLEDATIGNGNKMTIHLRSKGEVMESGDSEEPKKEDTGTSSEATPPRSCQHTPSDSMLPTSELRAMALGDSSPQTTEPVLREHEVQDIESSQDTGLSKQ
Consider B1, for which the binding result was “binds”.
